Laboratory results from patent US20060106200A1.

Molecular target: full length, processed caspase-9 (residues 1-416) (UniProt P55211)
Experiment: gel filtration chromatography of equi-molar Apaf-1 (1-591) and caspase-9

Sequence of full length, processed caspase-9 (residues 1-416) (P55211 whole entry, form in doubt, the tested form may be a part): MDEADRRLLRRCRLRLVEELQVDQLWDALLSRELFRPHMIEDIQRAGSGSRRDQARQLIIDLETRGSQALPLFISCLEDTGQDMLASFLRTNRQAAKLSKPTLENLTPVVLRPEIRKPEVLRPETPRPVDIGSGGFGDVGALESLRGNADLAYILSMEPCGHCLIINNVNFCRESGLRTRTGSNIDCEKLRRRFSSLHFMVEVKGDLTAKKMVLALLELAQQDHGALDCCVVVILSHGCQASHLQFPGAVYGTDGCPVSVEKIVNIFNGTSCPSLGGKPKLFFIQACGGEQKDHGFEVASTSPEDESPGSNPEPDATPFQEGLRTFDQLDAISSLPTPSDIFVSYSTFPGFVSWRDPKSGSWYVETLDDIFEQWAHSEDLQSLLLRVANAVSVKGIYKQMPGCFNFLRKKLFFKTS

apparent molecular mass of the complex peak on gel filtration: 130 kilodaltons
Substance: soluble Apaf-1 fragment (residues 1-591 of full length Apaf-1) (from UniProt O14727 1-591)
